The source of these data is patent publication US20230248825.

Experiment in all cases: cell_activity
Holding throughout (conditions): primary human T cells; as pair; two GMCSF TALEN constructs used, value not split by construct

The test system of data set [1] is GMCSF_Tal_1 TALEN right monomer (artificial).
The subject of data set [2] is GMCSF_Tal_2 TALEN right monomer (artificial).
Data set [3] relates to GMCSF_Tal_2 TALEN left monomer (artificial).
The subject of data set [4] is GMCSF_Tal_1 TALEN left monomer (artificial).

Sequence “CACTGTGGCCTGCAGCA (double strand) [GMCSF_Tal_1 right half-site]” gave an activity (% reduction in GMCSF secretion) in data set [1] of 90.
“TGAGATGGTAAGTGAGA (double strand) [GMCSF_Tal_2 right half-site]” gave an activity (% reduction in GMCSF secretion) in data set [2] of 90.
For “TCCTGAACCTGAGTAGA (double strand) [GMCSF_Tal_2 left half-site]”, in data set [3], the activity (% reduction in GMCSF secretion) came out at 90.
“TGTGGCTGCAGAGCCTG (double strand) [GMCSF_Tal_1 left half-site]” showed an activity (% reduction in GMCSF secretion) in data set [4] of 90.
